We go through two compounds from paper PMC3469102, “^64Cu-NODAGA-c(RGDyK) Is a Promising New Angiogenesis PET Tracer: Correlation between Tumor Uptake and Integrin α V β 3 Expression in Human Neuroendocrine Tumor Xenografts” (International Journal of Molecular Imaging, 2012).

Like-named read-outs stand apart in the source and are kept apart here.

One series in a line: in vivo. The following applies: nude, mouse, iv, 1.6 MBq, total radioactivity. The method, then:
A longitudinal dynamic study was performed scanning a mouse at 1, 2, and 18 hours after intravenous injection of 1.6 MBq ^64Cu-NODAGA-c(RGDyK), allowing dynamic information of the tracer biodistribution in tumors as well as in the other organs of interest. The PET scans were performed using a small animal PET scanner (MicroPET Focus 120, Siemens Medical Solutions, Knoxville, TN, USA). The energy window for the emission PET scans was set to 350–650 keV and the time resolution was 6 ns. Scan time was 10 min.
The acquired data for emission scan was stored in list-mode format and postprocessed to obtain 2 bytes 128 × 144 × 32 sinograms. Finally, the emission sinograms were reconstructed using MAP Algorithms and resulted into 4-byte 256 × 256 × 95 image sets with a zoom factor of 1.443 and a voxel size of 0.87 × 0.87 × 0.79 mm^3. Furthermore, the emission sinograms were corrected for dead time and decay time. Scatter and attenuation corrections were not applied to the emission data. The system was calibrated to provide activity concentrations as Bq/cc.
The small animal CT scans of the mouse parallel with the PET scans were acquired using a small animal computed tomography (microCAT II, Siemens Medical Solutions). The acquisition time of each CT scan was 6.5 minutes generating 360 projections at 360° arc. The X-ray source settings were 75 kVp, 500 μA, and 270 ms for the voltage, the current, and the exposure time, respectively. The CT projections on the 3,000 × 2,970 CCD crystal were binned by 4 to increase sensitivity and reduce the dataset size. The projections were reconstructed by real-time reconstruction algorithm (the COBRA toolbox) using Shepp-Logan filter into 768 × 768 × 512 matrix with a voxel size of 0.092 × 0.092 × 0.092 mm^3.
The fusion of the PET and CT images was performed manually using the ASIPro Toolbox (Siemens Medical Solutions). Also the analyses of PET images were performed in the ASIPro toolbox.
The measurement of the activity uptake in the tumors and the organs were estimated by manually outlining on CT images. […] The 3D ROIs of the organs were then applied on the corresponding PET images. The results of these ROIs acquired the concentration of the tracer in the organs expressed in percentage of the injected dose per gram tissue (%ID/g).

Details of series [1]: species or system mice. Conditions: mouse, in vivo. The protocol: Dose Assessment/EXponential Modeling software (OLINDA/EXM; Vanderbilt University, Nashville, TN, USA). To ensure a conservative estimate, the urinary elimination fraction was set to 75% with voiding intervals of 5 hours. The effective dose for both adult male and female were then calculated using OLINDA/EXM.

A short description of the next series: in vitro. The class given is in vitro ADME, nude mice. Conditions: nude, mouse, plasma. The protocol: The product (Figure 1) was used without further purification. HPLC analysis was performed with a Jupiter column, 4u Proteo 90A, 250 × 4.6 mm (Phenomenex, Torrance, CA, USA) and flow 1.5 mL/min. The HPLC mobile phase was solvent A, 0.1% trifluoroacetic acid in water, and solvent B, 0.1% trifluoroacetic acid in acetonitrile. Gradient: 0–2 min 15% B, 2–7 min 15–40% B, and 7–10 min 40–15% B. […] Plasma was mixed with equal amounts of acetonitrile after incubation. The resulting mixture was centrifugated and the supernatant was collected and filtered.

Series [2] can be described thus: Biodistribution (gamma counting) in mice with H727 xenografts. The following applies: female, NMRI nude, mouse, in vivo, iv, 2 MBq, total radioactivity. The method, then: (§1) Female NMRI (Naval Medical Research Institute) nude mice (6 weeks upon arrival) were acquired from Taconic Europe, Lille Skensved, Denmark. The mice were acclimated one week in the animal facilities before taken into experiments. […] […] Hypnorm^R (Janssen Pharmaceutica NV, Beerse, Belgium)/Dormicum^R (Roche, Basel, Switzerland). Tumors were then grown for 3-4 weeks (average tumor volume 210 mm^3). Animal care and experimental procedures were performed under the approval of the Danish Animal Welfare Council (2006/561-1124). Tumor bearing mice were anesthetized with 3% sevoflurane (Abbott Scandinavia AB, Solna, Sweden) mixed with 35% O2 in N2. […] Mice were sacrificed by neck drawing and tumors, organs (liver, kidneys, lung, spleen, heart, intestine, and muscle) and blood were collected, weighted, and radioactivity measured in a gamma counter (2480 Wizard^2, Perkin Elmer, MA, USA). Tumors were immediately placed in tubes containing RNAlater^R (Ambion Inc., TX, USA), stored overnight at 4°C, RNAlater^R then removed, and tumors stored at -80°C until total RNA extraction and further QPCR experiments were performed. […] (0.97 ± 0.03, 0.64 ± 0.04, 0.65 ± 0.04, and 0.62 ± 0.04) and decreasing further at 18 h p.i.

In series [3] the test system is human neuroendocrine tumor xenografts (H727). The series is described as above. Conditions: female, NMRI nude, mouse, in vivo, iv, 2 MBq, 18 h. The method, then:
as §1

Another series relates to U87MG xenograft tumors. Conditions: in vivo; cited from earlier work. The method, then: The cyclic RGD peptides c(RGDfK) and […] have frequently been used for radiolabeling. c(RGDfK), cyclo [Arg-Gly-Asp-D-Phe-Lys] only differs from c(RGDyK), cyclo [Arg-Gly-Asp-D-Tyr-Lys], in one amino acid, D-Phenylalanine (D-Phe) instead of D-tyrosine (D-Tyr). D-Tyr is more hydrophilic than D-Phe and c(RGDyK) has therefore been reported as preferable due to faster renal excretion. In our study we found a faster decrease of radioactivity in kidneys, intestine, and liver from 1 to 18 h (2.2 to 0.5, 1.6 to 0.4, and 1.1 to 0.4%ID/g) than that reported for ^64Cu-NODAGA-c(RGDfK) in the sam ... || NODAGA-c(RGDy/fK) has been labeled with ^68Ga and NODAGA-c(RGDfK) also with ^64Cu. One paper compared ^68Ga- and ^64Cu-NODAGA-c(RGDfK) and found the highest tracer uptake using ^68Ga-NODAGA-c(RGDfK) compared to ^64Cu-NODAGA-c(RGDfK) (5.2 versus 3.8%ID/g, 1 h p.i. in highly angiogenic U87MG xenograft tumors) but also 3 times higher tumor-to-blood ratio [12]. We found similar T/B ratio (12.7) after 1 hour using ^64Cu-NODAGA-c(RGDyK) as they did with ^64Cu-NODAGA-c(RGDfK). The advantage of ^64Cu labeling is the possibility of delayed imaging up to 12 or 18 h post ...

What is called share remaining is what is left of the initial amount, in per cent. High values mean greater stability, low ones a greater loss. Regarding `N=C(N)NCCC[C@@H]1NC(=O)[C@H](CCCCNC(=O)CCC(C(=O)O)N2CCN(CC(=O)O)CCN(CC(=O)O)CC2)NC(=O)[C@@H](Cc2ccc(O)cc2)NC(=O)[C@H](CC(=O)O)NC(=O)CNC1=O` (stereo partly drawn) [^64Cu-NODAGA-c(RGDyK), metal not drawn], in the series “in vivo”, the tissue to tissue ratio turned out to be 6.9 ± 0.8, the tissue uptake at 1 h was 1.15 %ID/g, the tissue uptake at 2 h stood at 0.99 %ID/g and the tissue uptake at 18 h is 0.76 %ID/g. For the same compound, in series [1], the “Residence time, Heart” value is 3.54E − 03 Bq ∗ h/Bq; the “Residence time, Kidneys” value was found to be 2.10E − 01 Bq ∗ h/Bq; the “Residence time, Liver” value is listed as 3.00E − 01 Bq ∗ h/Bq; the “Residence time, Lungs” value was determined as 1.29E − 02 Bq ∗ h/Bq. In series [1], the “Residence time, Small intestine” value is recorded as 2.79E − 01 Bq ∗ h/Bq and the “Residence time, Spleen” value was 1.20E − 02 Bq ∗ h/Bq. Besides, the amount remaining at 24 h, 20 MBq/mL in “in vitro” was 88%. In series [2] (%ID/g intestines), the tissue uptake at 1 h was 1.6 ± 0.16 %ID/g, the tissue uptake at 2 h stood at 0.64 ± 0.04 %ID/g and the tissue uptake at 18 h is 0.43 ± 0.04 %ID/g. Also, in series [2] (%ID/g kidneys), the tissue uptake at 1 h was 2.2 ± 0.11 %ID/g, the tissue uptake at 2 h is 0.97 ± 0.03 %ID/g and the tissue uptake at 18 h was determined as 0.51 ± 0.02 %ID/g. Also, in series [2] (%ID/g liver), the tissue uptake at 1 h came out at 1.05 ± 0.17 %ID/g, the tissue uptake at 2 h worked out at 0.65 ± 0.04 %ID/g and the tissue uptake at 18 h worked out at 0.43 ± 0.02 %ID/g. Besides, in series [2] (%ID/g spleen), the tissue uptake at 1 h turned out to be 0.94 ± 0.11 %ID/g, the tissue uptake at 2 h came to 0.62 ± 0.04 %ID/g and the tissue uptake at 18 h is 0.33 ± 0.02 %ID/g. Besides, in series [2] (Mean %ID/g for H727 tumors), the tissue uptake at 2 h worked out at 0.68 ± 0.06 %ID/g and the tissue uptake at 18 h came out at 0.63 ± 0.04 %ID/g. Further, in series [2] (Tumor-to-blood ratio), the tissue to tissue ratio at 1 h came out at 12.7, the tissue to tissue ratio at 2 h came out at 37.2 and the tissue to tissue ratio at 18 h is 20.2. Moreover, in series [2] (Tumor-to-intestine ratio), the tissue to tissue ratio at 1 h worked out at 0.72 ± 0.08, the tissue to tissue ratio at 2 h turned out to be 1.06 ± 0.11 and the tissue to tissue ratio at 18 h turned out to be 1.53 ± 0.11. Moreover, in series [2] (Tumor-to-liver ratio), the tissue to tissue ratio at 1 h is 1.08 ± 0.11, the tissue to tissue ratio at 2 h was determined as 1.03 ± 0.11 and the tissue to tissue ratio at 18 h came out at 1.54 ± 0.1. Further, in series [2] (Tumor-to-muscle ratio), the tissue to tissue ratio is 6.5 ± 0.7, the tissue to tissue ratio at 1 h was 4.99 ± 0.59, the tissue to tissue ratio at 2 h was determined as 7.34 ± 1.16 and the tissue to tissue ratio at 18 h turned out to be 7.09 ± 0.52. The tissue to tissue ratio at 1 h in series [2] (1 h p.i., biodistribution, H727 xenograft mice, read-out: Tumor-to-kidney ratio) amounted to 0.51 ± 0.05. Besides, the tissue uptake at 1 h in series [2] (1 h p.i., i.v. 2.0 ± 0.7 MBq, gamma counter, mean ± SEM, read-out: Mean %ID/g for H727 tumors) came to 1.15 ± 0.13 %ID/g. Also, the tissue to tissue ratio at 18 h in series [2] (18 h p.i., biodistribution, H727 xenograft mice, read-out: Tumor-to-kidney ratio) came to 1.2 ± 0.09. Moreover, in series [3], the “%ID/g intestines” value stood at 0.4 %ID/g, the “%ID/g kidneys” value came out at 0.5 %ID/g and the “%ID/g liver” value is 0.4 %ID/g.

As for ^68Ga-NODAGA-c(RGDfK) (head to tail), in the series on U87MG xenograft tumors, the “tumor-to-blood ratio, times higher than ^64Cu-NODAGA-c(RGDfK)” value is listed as 3 times.
